Laboratory results taken from article PMC4268634.

Columns and labels:
Assay in all cases: SPR
[1] = target: Z_(VEGFR2_22)-(S4G)4-ABD035-(S4G)4-Z_(VEGFR2_40)
[2] = target: Z_(VEGFR2_40)-(S4G)4-ABD035-(S4G)4-Z_(VEGFR2_22)
[3] = target: Z_(VEGFR2_40)-(S4G)4-ABD035-(S4G)4-Z_(VEGFR2_40)

- koff [1]: 0.00014 s⁻¹
- koff [2]: 0.00018 s⁻¹
- koff [3]: 0.00079 s⁻¹
Substance: murine VEGFR2 (Sino Biological) (from UniProt P35918 20-762) (receptor)
